From patent US20150056223A1, “PHARMACEUTICAL COMPOSITION FOR THE PREVENTION OR TREATMENT OF NON-ALCOHOLIC FATTY LIVER DISEASE” (HANMI SCIENCE CO., LTD, priority 2012, published 2015)

Target: GLP-1 receptor of RIN-m5F rat insulinoma cells (rat) (UniProt P32301)

Substance | In-vitro titer (%) (EC50 of cAMP in RIN-m5F cells, compared)
Exendin-4(Lys27)-PEG-Fc | 6.3%
Exendin-4(N)-PEG-Fc | < 0.2%
